Measurements as given in the Immune Epitope Database (IEDB).

Tests used:
[1] = target: HLA-A*02:01; assay: IEDB peptide-MHC binding, cellular MHC/competitive/fluorescence; ≥ and ≤ were set here for values at or beyond the usual limits of such assays
[2] = target: HLA-C*14:02; assay: IEDB peptide-MHC binding, purified MHC/direct/fluorescence; filed as Kd, often an IC50 or EC50 that approximates it; ≥ and ≤ were set here for values at or beyond the usual limits of such assays
[3] = target: HLA-A*03:01; assay: as above
[4] = target: HLA-B*18:01; assay: as above; details: source organism: Listeria monocytogenes serotype 4b str. H7858
[5] = target: HLA-B*46:01; assay: as above; details: source organism: Listeria monocytogenes serotype 4b str. H7858
[6] = target: HLA-B*27:03; assay: as above; details: source organism: Listeria monocytogenes serotype 4b str. H7858
[7] = target: HLA-A*24:03; assay: as above; details: source organism: Listeria monocytogenes serotype 4b str. H7858
[8] = target: HLA-A*68:02; assay: as above; details: source organism: Listeria monocytogenes serotype 4b str. H7858
[9] = target: HLA-B*51:01; assay: as above; details: source organism: Listeria monocytogenes serotype 4b str. H7858
[10] = target: HLA-A*29:02; assay: as above; details: source organism: Listeria monocytogenes serotype 4b str. H7858
[11] = target: HLA-B*15:01; assay: as above
[12] = target: HLA-A*02:03; assay: as above; details: source organism: Listeria monocytogenes serotype 4b str. H7858
[13] = target: HLA-B*15:17; assay: as above; details: source organism: Listeria monocytogenes serotype 4b str. H7858
[14] = target: HLA-A*69:01; assay: as above
[15] = target: HLA-A*26:01; assay: as above
[16] = target: HLA-A*02:19; assay: as above; details: source organism: Listeria monocytogenes serotype 4b str. H7858
[17] = target: HLA-A*02:12; assay: as above; details: source organism: Listeria monocytogenes serotype 4b str. H7858
[18] = target: HLA-A*02:16; assay: as above; details: source organism: Listeria monocytogenes serotype 4b str. H7858
[19] = target: HLA-A*02:11; assay: as above; details: source organism: Listeria monocytogenes serotype 4b str. H7858
[20] = target: HLA-B*57:01; assay: as above; details: source organism: Listeria monocytogenes serotype 4b str. H7858
[21] = target: HLA-C*05:01; assay: as above
[22] = target: HLA-A*02:01; assay: as above
[23] = target: HLA-A*24:03; assay: IEDB peptide-MHC binding, purified MHC/competitive/fluorescence; filed as Kd, often an IC50 or EC50 that approximates it; ≥ and ≤ were set here for values at or beyond the usual limits of such assays; details: source organism: Bacillus cereus G9241
[24] = target: HLA-C*15:02; assay: IEDB peptide-MHC binding, purified MHC/direct/fluorescence; filed as Kd, often an IC50 or EC50 that approximates it; ≥ and ≤ were set here for values at or beyond the usual limits of such assays
[25] = target: HLA-B*40:01; assay: as above
[26] = target: HLA-B*27:05; assay: as above
[27] = target: HLA-B*44:02; assay: as above
[28] = target: HLA-B*08:01; assay: as above
[29] = target: HLA-B*58:01; assay: as above
[30] = target: HLA-B*35:01; assay: as above; details: source organism: Giardia lamblia ATCC 50803
[31] = target: HLA-B*73:01; assay: as above
[32] = target: HLA-A*31:01; assay: as above
[33] = target: HLA-B*07:02; assay: as above
[34] = target: HLA-A*11:01; assay: as above
[35] = target: HLA-A*01:01; assay: as above
[36] = target: HLA-A*30:01; assay: as above; details: source organism: Brucella melitensis
[37] = target: HLA-C*12:03; assay: as above; details: source organism: Giardia lamblia ATCC 50803
[38] = source organism: Listeria monocytogenes serotype 4b str. H7858
[39] = source organism: Burkholderia pseudomallei 1710b
[40] = source organism: Giardia lamblia ATCC 50803
[41] = source organism: Brucella melitensis
[42] = source organism: Brucella abortus

## ALGGGATGV
[1]; source organism: Mycobacterium tuberculosis
  IC50: 1.4 µM

## APAAAAQAV
[2]; source organism: Mycobacterium tuberculosis C
  Kd: 3.08 µM

## FRDEAGAIL
[3]; [38]
  Kd: ≥ 20 µM
[4]
  Kd: ≥ 20 µM
[5]
  Kd: ≥ 20 µM
[6]
  Kd: ≥ 20 µM
[7]
  Kd: ≥ 20 µM
[8]
  Kd: ≥ 20 µM
[9]
  Kd: ≥ 20 µM
[10]
  Kd: ≥ 20 µM
[11]; [38]
  Kd: ≥ 20 µM
[12]
  Kd: ≥ 20 µM
[13]
  Kd: ≥ 20 µM
[14]; [38]
  Kd: ≥ 20 µM
[15]; [38]
  Kd: ≥ 20 µM
[16]
  Kd: ≥ 20 µM
[17]
  Kd: ≥ 20 µM
[18]
  Kd: ≥ 20 µM
[19]
  Kd: ≥ 20 µM
[20]
  Kd: ≥ 20 µM
[21]; source organism: Listeria monocytogenes FSL R2-503
  Kd: 2.21 µM
[22]; [38]
  Kd: ≥ 20 µM

## KFIILLTSF
[23]
  Kd: 0.159 µM
[2]; source organism: Bacillus cereus G9241
  Kd: 1.23 µM

## KTADVTVVF
[24]; [39]
  Kd: 0.253 µM
[21]; [39]
  Kd: 0.06 µM

## LGIVCPI
[1]; source organism: Human papillomavirus 16
  IC50: 0.7 µM

## RHIAIQVCY
[3]; [40]
  Kd: ≥ 20 µM
[25]; [40]
  Kd: ≥ 20 µM
[26]; [40]
  Kd: 3.36 µM
[27]; [40]
  Kd: ≥ 20 µM
[28]; [40]
  Kd: ≥ 20 µM
[29]; [40]
  Kd: ≥ 20 µM
[30]
  Kd: 1.19 µM
[11]; [40]
  Kd: 1.73 µM
[31]; [40]
  Kd: ≥ 20 µM
[32]; [40]
  Kd: ≥ 20 µM
[33]; [40]
  Kd: ≥ 20 µM
[14]; [40]
  Kd: ≥ 20 µM
[34]; [40]
  Kd: ≥ 20 µM
[15]; [40]
  Kd: ≥ 20 µM
[35]; [40]
  Kd: ≥ 20 µM
[22]; [40]
  Kd: ≥ 20 µM

## SRIGAWASK
[3]; [41]
  Kd: 5.83 µM
[25]; [42]
  Kd: ≥ 20 µM
[26]; [41]
  Kd: 0.0531 µM
[27]; [42]
  Kd: ≥ 20 µM
[28]; [42]
  Kd: ≥ 20 µM
[29]; [42]
  Kd: ≥ 20 µM
[11]; [42]
  Kd: ≥ 20 µM
[31]; source organism: Brucella suis 1330
  Kd: ≥ 20 µM
[32]; [42]
  Kd: ≥ 20 µM
[33]; [42]
  Kd: ≥ 20 µM
[14]; [42]
  Kd: ≥ 20 µM
[36]
  Kd: 1.27 µM
[34]; [41]
  Kd: 1.22 µM
[15]; [42]
  Kd: ≥ 20 µM
[35]; [42]
  Kd: ≥ 20 µM
[22]; [42]
  Kd: ≥ 20 µM

## VLDVGDAYFSV
[1]; source organism: Human immunodeficiency virus 1
  IC50: 7 µM

## YLYLRPYAL
[2]; [40]
  Kd: 0.151 µM
[24]; [40]
  Kd: 3.05 µM
[28]; [40]
  Kd: 0.016 µM
[37]
  Kd: 0.029 µM
